{"source": "paper PMC3951589", "molecular_target": "pIICASV-GP2(267–351) (not stated | CAS virus (CASV))", "test": "SEC"}
{"substance": "pIICASV-GP2(267–351) (domain or fragment)", "values": [{"measurement": "stoichiometry N", "value": 3}]}
